The source of these data is patent US20230406950A1 (LYVGEN BIOPHARMA, published 2023).

Changes are numbered by the printed parent chain.

The target in experiment [1] is T1, human GITR expressed on cells (human, UniProt Q9Y5U5 26-241).
T1 construct: whole, on cells; also called TNFRSF18; CD357
T1 sequence (looked up): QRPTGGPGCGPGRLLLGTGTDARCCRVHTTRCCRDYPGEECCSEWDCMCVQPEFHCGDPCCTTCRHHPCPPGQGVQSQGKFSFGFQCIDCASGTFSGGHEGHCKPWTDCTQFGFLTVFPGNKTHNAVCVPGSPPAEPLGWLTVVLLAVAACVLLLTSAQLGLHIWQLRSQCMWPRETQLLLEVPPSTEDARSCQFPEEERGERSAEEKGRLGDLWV
The experiment is described as follows: flow cytometry (FACS), MFI, CHO cells expressing human GITR. As to the method: FACS analysis was performed to evaluate the binding properties of exemplary anti-GITR humanized antibodies. Briefly, CHO cells over-expressing human GITR were harvested using trypsin-EDTA partial digestion followed by centrifugation at 1000 g for 3 minutes. The cells were re-suspended in cold PBS-BSA (2%) at 2×10⁶/mL and aliquoted to 100 μL/tube. The anti-GITR humanized antibodies were diluted in PBS-BSA (final concentrations were 0.01, 0.1, 1 and 10 μg/mL) and 50 μL of each was added to the CHO-GITR cells. The cell solutions were mixed and incubated at 4° C. in the dark for 2 hours. The cells were then washed with PBS-BSA twice. Secondary antibody conjugates (goat F(ab′)2 anti-human IgG—Fc (PE), pre-adsorbed, Abcam #ab98596) at 1/500 dilution and 100 μL/well was added and the cells were mixed and incubated 4° C. in dark for 1 hour. The cells were then washed twice with PBS-BSA, followed by fixation in 2% PFA/PBS, and were then subjected to FACS analysis.
[0270] (b) Agonistic Activity for GITR
Background: Flow cytometry measures light scatter and fluorescence of single cells or particles in a stream.

The target in experiment [2] is T2, human PD-L1 expressed on cells (human, UniProt Q9NZQ7 19-290).
T2 construct: whole, on cells; also called human PD-L1 expressed on CHO cells; Raji-PD-L1 cells
The experiment can be described thus: flow cytometry (FACS), MFI, CHO cells expressing human PD-L1. As to the method: Exemplary anti-PD-1/CD137 bi-specific antibodies were analyzed by FACS for their binding properties to human PD-1 and/or human CD137 expressed on CHO cells. Briefly, cultured cells were harvested, counted and cell viability was evaluated using the Trypan Blue exclusion method. Viable cells were then adjusted to 2×10⁶ cells per mL in PBS containing 2% BSA. 100 μL of this cell suspension were further aliquoted per well into a V-bottom 96-well plate. […] After incubation for 2 hours at 4° C., cells were centrifuged (3 min, 1000× g), washed with 250 μL/well BSA-containing FACS Stain Buffer, resuspended and incubated for an additional 1 hour at 4° C. with 100 μL/well fluorochrome-conjugated anti-IgG antibody for detection of the bisepecific antibody. Cells were then washed with 250 μL/well BSA-containing FACS Stain Buffer, resuspended in 100 μL/well FACS Stain Buffer, acquired and analyzed using a FACS machine. Binding of the bispecific antibodies to human PD-1 or human CD137 expressing CHO cells were evaluated and the mean fluorescence intensity is plotted in histograms or dot plots.
Exemplary anti-PD-L1/CD137 bi-specific antibodies were analyzed by FACS for their binding properties to human PD-L1 or human CD137 expressed on CHO cells, following the procedures disclosed in Examples 1 above.

In experiment [3] the target is T3, ECD portion of human CD137 protein (mouse IgG2a Fc tag) (human, UniProt Q07011 24-186).
T3 construct: extracellular domain; also called recombinant human CD137; not shown: mouse IgG2a Fc tag
The experiment is described as follows: bridging ELISA: human CD137 ECD (mouse IgG2a Fc tag) coated, antibody titrated, then human PD-L1 ECD (His tag), HRP anti-His detection; A450-A620. As to the method:
(§1) Exemplary anti-PD-L1/CD137 bi-specific antibodies were analyzed by ELISA for their simultaneous binding to recombinant human PD-L1 and human CD137. Briefly, the ECD portion of human CD137 protein (mouse IgG2a Fc tag) was diluted and coated onto an ELISA plate with a volume of 100 μL/well by incubation at 4° C. overnight. The next day, the plate was blocked with PBST-BSA buffer, then serially diluted samples of anti-PD-L1/CD137 bi-specific antibodies were pipetted into appropriate wells at 50 μL/well, and the plate was incubated for 1 h followed by Washing. Human PD-L1 ECD fragment (His tag) was added into the plate at 50 μL/well. After 1-hour incubation at room temperature, HRP-conjugated anti-His tag antibody was added into the plate at 100 μL/well and […]. The plate was incubated for 1 hour at room temperature followed by washing. TMB substrate solution was added at 100 μL/well and the color development was stopped by adding 100 uL/well Stop Solution (2N H₂SO₄). Absorbance at 450 nm and 620 nm was read by Tecan F200 Pro plate reader. GraphPad 7.0, “[Agonist] vs. response—Variable slope (four parameters)” was used to plot the binding data and calculate binding EC50 values.
(ELISA stands for enzyme-linked immunosorbent assay.)

Experiment [4] concerns the target T4, Human PD-L1 ECD fragment (His tag) (human, UniProt Q9NZQ7 19-238).
T4 construct: extracellular domain; also called recombinant human PD-L1; not shown: His tag
Described as above. The method, then: as §1

T4 sequence (Q9NZQ7 19-238): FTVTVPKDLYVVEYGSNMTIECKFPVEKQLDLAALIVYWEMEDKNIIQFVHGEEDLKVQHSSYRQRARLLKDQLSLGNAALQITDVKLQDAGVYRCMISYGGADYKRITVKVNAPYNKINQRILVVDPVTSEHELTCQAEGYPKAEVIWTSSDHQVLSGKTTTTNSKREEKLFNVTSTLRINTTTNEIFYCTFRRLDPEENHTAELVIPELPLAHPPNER
T2 sequence (Q9NZQ7 19-290): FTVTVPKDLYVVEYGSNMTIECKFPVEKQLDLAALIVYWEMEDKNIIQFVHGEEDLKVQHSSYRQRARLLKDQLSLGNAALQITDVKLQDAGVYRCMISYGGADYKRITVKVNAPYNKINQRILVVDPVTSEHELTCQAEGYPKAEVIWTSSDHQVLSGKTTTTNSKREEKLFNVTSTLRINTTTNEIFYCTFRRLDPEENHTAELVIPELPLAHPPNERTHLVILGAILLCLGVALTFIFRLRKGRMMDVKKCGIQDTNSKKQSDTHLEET

B1: TM392 (antibody, human IgG4 S228P, kappa, V domains shown)
VH: QVQLKESGPGLVQPSETLSLTCNVSGFSLTSYNVHWVRQPPGKGLEWLGVIWSGVRTDYNSVLKSRLSIRWDSSKNQVFLKMNSLQSEDTATYYCARGTYDANYHDVMDAWGQGASVTVSS
VL: DTVLTQSPALAVSPGERVTISCRASKSVRTGMHWYQQKPGQQPKLLVYGASNLESGVPARFSGSGSGTDFTLTIDPVEADDIATYFCHQSWNHFTFGSGTKLEIKR
notes: Chimeric anti-GITR antibody; also called chimeric antibody TM392 (LYV392 with human constant regions)
Consider B1, for which the binding result in experiment [1] is “binds”.

B2: TM396 (antibody, human IgG4 S228P, kappa, V domains shown)
VH: B1 VH with N23T, S65P, R70S, W71R, Q77K, K81N, A102D
VL: B1 VL with V47I, A59V, I82T, H88Q
notes: Chimeric anti-GITR antibody from LYV396; also called chimeric antibody TM396 (IgG4)
As to B2, the binding result in experiment [1] is “binds”.

B3: TM676 (antibody, human IgG1, kappa, V domains shown)
VH: QVQLQESGPGLVKPSETLSLTCTVSGFSLTSYNVHWIRQPPGKGLEWIGVIWSGVRTDYNSVLKSRVTISVDTSKNQFSLKLSSVTAADTAVYYCARGTYDANYHDVMDAWGQGTMVTVSS
VL: EIVLTQSPATLSLSPGERATLSCRASKSVRTGMHWYQQKPGQAPRLLIYGASNLESGIPARFSGSGSGTDFTLTISSLEPEDFAVYYCHQSWNHFTFGQGTKLEIKR
notes: Humanized anti-GITR antibody; also called humanized LYV392 antibody (VH-1/IgG1 mut, VL-1/kappa)
On to B3, for which, in experiment [1], the binding result is given as “binds”.

B4: Ly299 (bispecific antibody, human IgG1, kappa)
heavy: QVQLVQSGAEVKKPGASVKVSCKASGYTFTDFWMSWVRQAPGQGLEWMGQIYPNTGTTHSNEKFKGRVTMTRDTSTSTVYMELSSLRSEDTAVYYCARSYHISTTPNWFAYWGQGTLVTVSSASTKGPSVFPLAPSSKSTSGGTAALGCLVKDYFPEPVTVSWNSGALTSGVHTFPAVLQSSGLYSLSSVVTVPSSSLGTQTYICNVNHKPSNTKVDKKVEPKSCDKTHTCPPCPAPELLGPSVFLFPPKPKDTLMISRTPEVTCVVVDVSHEDPEVKFNWYVDGVEVHNAKTKPREEQYNSTYRVVSVLTVLHQDWLNGKEYKCKVSNKALPAPIEKTISKAKGQPREPQVYTLPPSREEMTKNQVSLTCLVKGFYPSDIAVEWESNGQPENNYKTTPPVLDSDGSFFLYSKLTVDKSRWQQGNVFSCSVMHEALHNHYTQKSLSLSPGGGGGSGGGGSGGGGSGGGGSDIQMTQSPSSLSASVGDRVTITCRASQDIRSNLNWYQQKPGGAVKLLIYYTSRLHSGVPSRFSGSGSGTDYTLTISSLQPEDFATYFCQQSEKLPRTFGGGTKVEIRGGGGSGGGGSGGGGSGGGGSQVQLVQSGAEVKKPGASVKVSCKASGYTFAGFEMHWVRQAPGQGLEWMGAIDPKTGGTDYNQKFKDRVTMTRDTSISTAYMELSRLRSDDTAVYYCARDLGYFDVWGQGTLVTVSS
light: DIQMTQSPSSLSASVGDRVTITCKASQNVYKKLEWYQQKPGKVPKVLIYHTNILQTGVPSRFSGSGSGTDYTLTISSLQPEDVATYYCYQWNSGPTFGGGTKVEIKRTVAAPSVFIFPPSDEQLKSGTASVVCLLNNFYPREAKVQWKVDNALQSGNSQESVTEQDSKDSTYSLSSTLTLSKADYEKHKVYACEVTHQGLSSPVTKSFNRGEC
notes: Anti-PD-L1/CD137: Ly076 heavy chain fused to Ly1630 scFv (VL-VH); Ly076 light chain
The EC50 (read off the curve) is the concentration needed to bring the measured effect to its halfway point. Lower therefore signals higher potency in that assay. Consider B4, for which the binding result in experiment [2] and in experiment [4] was “binds” each time. Besides, the 50% effective concentration (EC50 (read off the curve)) in experiment [3] is about 0.1 mg/L.
